The record followed here is paper PMC10505908.

The target of series [1] is T1, HMCES SRAP R98E R98E (human) (UniProt Q96FZ2).
T1 sequence: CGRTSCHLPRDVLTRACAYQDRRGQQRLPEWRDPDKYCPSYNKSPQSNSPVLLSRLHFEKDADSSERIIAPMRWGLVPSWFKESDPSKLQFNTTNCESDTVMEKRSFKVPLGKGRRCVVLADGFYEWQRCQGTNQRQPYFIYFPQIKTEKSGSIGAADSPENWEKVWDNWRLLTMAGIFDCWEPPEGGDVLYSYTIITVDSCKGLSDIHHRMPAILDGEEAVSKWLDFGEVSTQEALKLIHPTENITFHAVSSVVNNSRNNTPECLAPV
Nature of the series: covalent DPC formation, SDS-PAGE. The note with it: N15 = AP site from dU by UDG.

Series [2] has as its target T2, HMCES SRAP E127A E127A (human) (UniProt Q96FZ2).
T2 sequence: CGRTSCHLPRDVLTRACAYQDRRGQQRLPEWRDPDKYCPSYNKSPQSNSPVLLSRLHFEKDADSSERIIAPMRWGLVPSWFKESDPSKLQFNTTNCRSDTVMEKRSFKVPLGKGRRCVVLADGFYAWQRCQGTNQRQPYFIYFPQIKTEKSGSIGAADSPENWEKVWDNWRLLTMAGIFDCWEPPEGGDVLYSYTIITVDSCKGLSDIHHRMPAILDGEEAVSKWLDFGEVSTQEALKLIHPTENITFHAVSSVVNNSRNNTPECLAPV
Nature of the series: covalent DPC formation, SDS-PAGE. The note with it: N15 = AP site from dU by UDG.

The next series has as its target T3, HMCES SRAP E127A (human, UniProt Q96FZ2 2-270, E127A).
T3 sequence: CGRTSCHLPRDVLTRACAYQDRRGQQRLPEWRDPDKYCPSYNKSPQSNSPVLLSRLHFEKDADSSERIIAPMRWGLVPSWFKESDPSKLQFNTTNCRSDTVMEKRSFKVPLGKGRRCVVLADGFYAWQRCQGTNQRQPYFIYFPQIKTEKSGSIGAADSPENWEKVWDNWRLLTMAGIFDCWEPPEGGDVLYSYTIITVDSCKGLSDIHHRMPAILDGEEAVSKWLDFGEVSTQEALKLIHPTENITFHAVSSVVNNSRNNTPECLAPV
As to the kind of experiment: fluorescence polarization.

With “CCCAAAAAAAAAAANAAAAAAAAAAAACCC / GGGTTTTTTTTTTTTATTTTTTTTTTTGGG [30mer AP site dsDNA]”, the binding signal (fraction crosslinked) in series [1] and in series [2] was 0 throughout.
Take CCCAAAAAAAAAAATAAAAAAAAAAAACCC (ssDNA) [30mer dT-oligonucleotide]: the binding result with HMCES SRAP E127A is on record as “binds”.
